Reference: patent publication US20240301068A1 (BEIJING HANMI PHARMACEUTICAL, published 2024)

Experiments:
[1] = molecular target: T1, recombinant human PD-L1 (Sino Biological Inc.) (human, UniProt Q9NZQ7 19-239); experiment: ELISA, human PD-L1 coated
Description: (§1) A 96-well high-adsorption ELISA plate was coated with 1 μg/mL of the recombinant human PD-L1 (Sino Biological Inc.) at 100 μL per well using carbonate buffer solution, pH=9.6 at 4° C. overnight. The plate was washed 5 times with PBST, and then blocked using PBST with 1% BSA, 300 μL/well, and incubated at 25° C. for 1 hour, and then washed 5 times with PBST. […] The horseradish peroxidase-labeled anti-human IgG antibody (Chemicon, catalog number AP309P) diluted 1:10000 in PBST with 1% BSA was then added, 100 μL per well, and incubated at 25° C. for 1 hour. The plate was washed 5 times with PBST. The colorimetric substrate TMB was added, 100 μL/well, and developed at room temperature for 10 minutes. 1M H₂SO₄ was added, 100 μL/well, to stop the development. The absorbance at 450 nm was read on a microplate reader.

[2] = molecular target: T1, recombinant human PD-L1 (Sino …); experiment: PD-L1/CD80 blocking assay, competitor CD80, format not described
[3] = molecular target: recombinant rat PD-L1 (Sino Biological Inc.) (rat, UniProt D4AE25 19-239); experiment: ELISA, plate coated with 1 ug/mL recombinant rat PD-L1, anti-human IgG-HRP, OD450
Description: (§2) A 96-well high-adsorption ELISA plate was coated with 1 μg/mL of the recombinant human PD-L1, cynomolgus PD-L1, rat PD-L1 and mouse PD-L1 (all purchased from Sino Biological Inc.), at 100 μL per well using carbonate buffer solution, pH=9.6 at 4° C. overnight. The plate was washed 5 times with PBST, and then blocked using PBST with 1% BSA, 300 μL/well, and incubated at 25° C. for 1 hour, and then washed 5 times with PBST. The chimeric anti-human PD-L1 antibody samples serially diluted in PBST with 1% BSA were added, 100 μL/well, incubated at 25° C. for 1 hour, and then washed 5 times with PBST. The horseradish peroxidase-labeled anti-human IgG antibody (Chemicon, catalog number AP309P) diluted 1:10000 in PBST with 1% BSA was then added, 100 μL per well, and incubated at 25° C. for 1 hour. The plate was washed 5 times with PBST. The colorimetric substrate TMB was added, 100 μL/well, and developed at room temperature for 10 minutes. 1M H₂SO₄ was added, 100 μL/well, to stop the development. The absorbance at 450 nm was read on a microplate reader.

[4] = molecular target: recombinant cynomolgus PD-L1 (Sino Biological Inc.) (cynomolgus, UniProt G7PSE7 19-238); experiment: ELISA, plate coated with 1 ug/mL recombinant cynomolgus PD-L1, anti-human IgG-HRP, OD450
Description: as §2

[5] = molecular target: recombinant human PD1 (Sino Biological Inc.) (human, UniProt Q15116 25-167); experiment: ELISA, plate coated with 1 ug/mL recombinant human PD1, anti-human IgG-HRP, OD450; antibody concentration not shown
Description: as §1, with “The” for “A 96-well high-adsorption ELISA plate was coated with 1 μg/mL of the recombinant human PD-L1 (Sino Biological Inc.) at 100 μL per well using carbonate buffer solution, pH=9.6 at 4° C. overnight. The”

[6] = molecular target: recombinant human BTLA (Sino Biological Inc.) (human, UniProt Q7Z6A9 31-157, limits assumed); experiment: ELISA, plate coated with 1 ug/mL recombinant human BTLA, anti-human IgG-HRP, OD450; antibody concentration not shown
Description: as §1, with “The” for “A 96-well high-adsorption ELISA plate was coated with 1 μg/mL of the recombinant human PD-L1 (Sino Biological Inc.) at 100 μL per well using carbonate buffer solution, pH=9.6 at 4° C. overnight. The”

[7] = molecular target: T2, recombinant human ICOS (Sino Biological Inc.) (human, UniProt Q9Y6W8 21-141); experiment: ELISA, plate coated with 1 ug/mL recombinant human ICOS, anti-human IgG-HRP, OD450; antibody concentration not shown
T2 sequence (looked up): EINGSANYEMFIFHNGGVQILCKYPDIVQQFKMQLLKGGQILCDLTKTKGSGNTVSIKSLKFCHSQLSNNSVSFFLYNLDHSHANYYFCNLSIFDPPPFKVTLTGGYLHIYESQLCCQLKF
Description: as §1, with “The” for “A 96-well high-adsorption ELISA plate was coated with 1 μg/mL of the recombinant human PD-L1 (Sino Biological Inc.) at 100 μL per well using carbonate buffer solution, pH=9.6 at 4° C. overnight. The”

[8] = molecular target: T3, recombinant human CD80 (Sino Biological Inc.) (human, UniProt P33681 35-242); experiment: ELISA, plate coated with 1 ug/mL recombinant human CD80 (printed B7-1), anti-human IgG-HRP, OD450; antibody concentration not shown
T3 sequence (looked up): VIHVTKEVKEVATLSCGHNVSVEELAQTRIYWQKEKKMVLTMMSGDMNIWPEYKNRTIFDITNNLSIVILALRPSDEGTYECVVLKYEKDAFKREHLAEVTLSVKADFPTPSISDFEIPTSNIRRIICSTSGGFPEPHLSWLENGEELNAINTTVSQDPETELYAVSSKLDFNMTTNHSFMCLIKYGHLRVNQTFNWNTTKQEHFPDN
Description: as §1, with “The” for “A 96-well high-adsorption ELISA plate was coated with 1 μg/mL of the recombinant human PD-L1 (Sino Biological Inc.) at 100 μL per well using carbonate buffer solution, pH=9.6 at 4° C. overnight. The”

[9] = molecular target: T4, recombinant human CD86 (Sino Biological Inc.) (human, UniProt P42081 24-247, limits assumed); experiment: ELISA, plate coated with 1 ug/mL recombinant human CD86 (printed B7-2), anti-human IgG-HRP, OD450; antibody concentration not shown
T4 sequence (looked up): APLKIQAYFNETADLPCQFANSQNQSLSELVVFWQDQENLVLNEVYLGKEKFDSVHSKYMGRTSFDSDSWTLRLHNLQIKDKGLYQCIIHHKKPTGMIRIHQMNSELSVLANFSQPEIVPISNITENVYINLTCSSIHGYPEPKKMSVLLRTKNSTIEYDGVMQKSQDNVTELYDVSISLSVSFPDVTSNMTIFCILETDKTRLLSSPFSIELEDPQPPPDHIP
Description: as §1, with “The” for “A 96-well high-adsorption ELISA plate was coated with 1 μg/mL of the recombinant human PD-L1 (Sino Biological Inc.) at 100 μL per well using carbonate buffer solution, pH=9.6 at 4° C. overnight. The”

[10] = molecular target: T1, recombinant human PD-L1 (Sino …); experiment: direct binding ELISA, plate coated with 1 ug/mL recombinant human PD-L1, anti-human IgG-HRP, OD450; the curve rises, the sheet labels the half-maximal value IC50
Description: as §1

T1 sequence (Q9NZQ7 19-239 limits assumed): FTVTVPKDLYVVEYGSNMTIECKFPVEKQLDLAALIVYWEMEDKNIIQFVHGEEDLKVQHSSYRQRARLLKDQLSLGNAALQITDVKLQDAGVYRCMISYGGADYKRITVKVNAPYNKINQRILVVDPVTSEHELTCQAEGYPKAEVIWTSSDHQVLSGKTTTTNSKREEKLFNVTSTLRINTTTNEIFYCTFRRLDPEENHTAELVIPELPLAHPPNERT
Sequence of recombinant rat PD-L1 (Sino Biological Inc.) (D4AE25 entry or part of it limits assumed): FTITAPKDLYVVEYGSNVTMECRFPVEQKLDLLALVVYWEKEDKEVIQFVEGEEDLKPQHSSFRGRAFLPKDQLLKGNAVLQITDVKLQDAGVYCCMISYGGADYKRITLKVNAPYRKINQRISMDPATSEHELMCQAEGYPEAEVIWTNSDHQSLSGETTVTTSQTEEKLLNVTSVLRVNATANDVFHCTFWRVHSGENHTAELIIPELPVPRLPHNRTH
Sequence of recombinant cynomolgus PD-L1 (Sino Biological Inc.) (G7PSE7 entry or part of it limits assumed): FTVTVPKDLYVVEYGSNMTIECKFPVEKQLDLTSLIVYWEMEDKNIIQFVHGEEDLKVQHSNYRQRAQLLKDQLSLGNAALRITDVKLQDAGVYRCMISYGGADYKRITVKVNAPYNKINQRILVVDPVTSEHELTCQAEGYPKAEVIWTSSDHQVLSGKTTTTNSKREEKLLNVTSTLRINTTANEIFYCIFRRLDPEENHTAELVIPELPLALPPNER
Sequence of recombinant human PD1 (Sino Biological Inc.) (Q15116 25-167 limits assumed): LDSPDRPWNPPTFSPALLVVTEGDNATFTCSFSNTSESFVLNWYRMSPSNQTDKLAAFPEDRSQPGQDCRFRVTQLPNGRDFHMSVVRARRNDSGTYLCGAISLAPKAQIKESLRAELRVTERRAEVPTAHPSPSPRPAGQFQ

B1: chimeric anti-human PD-L1 monoclonal antibody (antibody, human IgG1, kappa, V domains shown)
VH: EVQLQQSGAELVKPGASVKLSCTASGFNIEDTYIHWVMQRPEQGLEWIGRIDPANGNTKYDPKFQGKATITADTSSNTAYLQLSSLTSEDTAVYYCGRGLGAWFAYWGQGTLVTVSA
VL: DIVMTQSHKVMSTSVGDRVTITCKASQDVHTAVAWIHQKPGQSPKLLIYSASNRYTGVPDRFTGSGSGTDFTFTISSVQAEDLAVYYCQQHYITPLTFGAGTTLELKR
notes: expressed in ExpiCHO cells; also called Chimeric mAb; Chimeric antibody
[1]
  EC50: 0.066 nM
[2]
  IC50: 0.762 nM
[3]
  binding result: no binding (tested: about 20 nM (last point on the log axis))
[4]
  EC50: 0.074 nM
[5]
  binding result: no binding
[6]
  binding result: no binding
[7]
  binding result: no binding
[8]
  binding result: no binding
[9]
  binding result: no binding
[10]
  EC50: 0.021 nM
